Publication PMC3681763 (2013)
Each block holds one binder with its values, some of them ahead of it.

B1: (C2)RAGE-GFP (domain or fragment)
chain: EPVPLEEVQLVVEPEGGAVAPGGTVTLTCEVPAQPSPQIHWMKDGVPLPLPPSPVLILPEIGPQDQGTYSCVATHSSHGPQESRAVSISIIEPGEEGPTAGSVGGS

Columns and labels:
Assay in all cases: ELISA
[1] = molecular target: Peptide aptamer PA #71 (anti-C2 domain), purified, in the D26A, K57E Thioredoxin scaffold (E. coli, UniProt P0AA25 = thioredoxin)
(C2)RAGE-GFP = molecular target: B1
Apt#48 = molecular target: Apt#48
Apt#31 = molecular target: Apt#31
[2] = molecular target: Peptide aptamer PA #27 (anti-C1 domain), purified, in the D26A, K57E Thioredoxin scaffold (E. coli, UniProt P0AA25 = thioredoxin)
[3] = molecular target: Peptide aptamer PA #44 (anti-V domain), purified, in the D26A, K57E Thioredoxin scaffold (E. coli, UniProt P0AA25 = thioredoxin)

Binder: B1
Kd [1]: 14500 nM

Kd ((C2)RAGE-GFP): 1340 nM
B2: Peptide aptamer PA #103 (anti-C2 domain), purified, in the D26A, K57E Thioredoxin scaffold (designed binder)
chain: SDKIIHLTDDSFDTDVLKADGAILVAFWAEWIQLRVRMKLVKMIAPILDEIADEYQGKLTVAELNIDQNPGTAPKYGIRGIPTLLLFKNGEVAATKVGALSKGQLKEFLDANLA

Kd (Apt#48): 152 nM
Kd (Apt#31): 42 nM
Kd [2]: 32 nM
Kd [3]: 164 nM
B3: (VC1)RAGE-GFP (domain or fragment)
chain: AQNITARIGEPLVLKCKGAPKKPPQRLEWKLNTGRTEAWKVLSPQGGGPWDSVARVLPNGSLFLPAVGIQDEGIFRCQAMNRNGKETKSNYRVRVYQIPGKPEIVDSASELTAGVPNKVGTCVSEGSYPAGTLSWHLDGKPLVPNEKGVSVKEQTRRHPETGLFTLQSELMVTPARGGDPRPTFSCSFSPGLPRHRALRTAPIQPRVWEPVPLEEVQLVVEPEG
